How the values were obtained:
[1] = biological target: T1, G-CSFR/gp130 chimera proteins (Homo sapiens, UniProt P40189+Q99062); experiment: G-CSF stimulation of G-CSFR/gp130 chimera proteins in F11 cells, cell mortality by Trypan blue exclusion; type: cell-based; conditions: 100 nM; G-25 expressed
T1 construct: the extracellular domain of the human G-CSF receptor fused to the full transmembrane domain; expressed in transfected cells; host or cells: F11 cells
T1 sequence (Q99062+P40189 with tags, fused parts or gaps): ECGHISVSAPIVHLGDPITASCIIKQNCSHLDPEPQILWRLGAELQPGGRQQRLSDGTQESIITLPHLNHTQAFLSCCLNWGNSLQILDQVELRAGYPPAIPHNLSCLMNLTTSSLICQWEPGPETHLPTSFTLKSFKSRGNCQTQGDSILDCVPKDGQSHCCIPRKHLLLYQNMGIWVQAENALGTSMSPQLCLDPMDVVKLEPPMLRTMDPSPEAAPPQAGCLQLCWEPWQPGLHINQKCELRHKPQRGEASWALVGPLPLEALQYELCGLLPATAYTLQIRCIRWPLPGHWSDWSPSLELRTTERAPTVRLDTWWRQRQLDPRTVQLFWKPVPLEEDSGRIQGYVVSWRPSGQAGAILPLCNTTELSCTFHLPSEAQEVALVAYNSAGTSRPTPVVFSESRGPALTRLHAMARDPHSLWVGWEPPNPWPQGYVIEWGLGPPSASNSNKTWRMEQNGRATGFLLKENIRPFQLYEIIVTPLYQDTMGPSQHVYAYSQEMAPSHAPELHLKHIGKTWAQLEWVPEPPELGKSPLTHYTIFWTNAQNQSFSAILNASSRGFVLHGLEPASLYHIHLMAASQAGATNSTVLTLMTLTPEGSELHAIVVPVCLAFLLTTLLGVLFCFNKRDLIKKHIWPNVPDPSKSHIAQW
Procedure: (§1) B) F11 cells were transfected with 0.5 μg of the pcDNA3 vector or pcDNA3-APP in association with 0.5 μg of the pEFBos vector or the pEFBos vectors encoding the extracellular domain of the human G-CSF receptor fused to the full transmembrane domain and a C-terminally truncated intracytoplasmic domain of gp130 (named “G-CSFR/gp130”). G-CSFR/gp130 (277) contains the full intracytoplasmic domain of gp130 corresponding to amino acids 1-277, while G-CSFR/gp130 (25), (68), and (133) contain the intracytoplasmic domains corresponding to amino acids 1-25, 1-68, and 1-133, respectively. At 24 hr after transfection, the cells were added with indicated amounts of human G-CSF. Cell mortality was determined by Trypan blue exclusion assay at 72 hr after transfection. The results of immunoblot analysis of the expression of […] are shown in photos.
(§2) C) Instead of the pcDNA3-V6421-APP vector, pcDNA3-K595 N/M596L-APP (NL-APP), M146L-PS1 and N141-I-PS2 vectors were used to do the same experiments as in FIG. 2A. The results of immunoblot analysis of the expression of NL-APP, M146L-PS1 and N141-I-PS2 are shown in photos.
(§3) D) F11 cells were transfected with 0.5 μg of the pEFBos vector or pEF-G85R-SOD1 in association with 0.5 μg of the pEFBos vector or each pEFBos vector encoding G-CSFR/gp130 (277) or G-CSFR/gp130 (25). At 24 hr after transfection, the cells were added with indicated amounts of human G-CSF. Cell mortality was determined by Trypan blue exclusion assay at 72 hr after transfection. The results of the expression of G85R-SOD1, which were confirmed by the immunoblot analysis, are shown in photos.
(§4) Neurohybrid F11 cells and pcDNA3 vectors encoding V642I-APP, K595N/M596L-APP (NL-APP), M146L-PS1, and N141I-PS2 cDNA were prepared as already described (Hashimoto et al, 2000, 2001a, 2003). pCAG-human gp130 and pCAG-human gp130 ED (the extracellular domain of human gp130) were prepared as described (Kumanogoh et al., 1997). pcDNA3 vectors encoding the extracellular domain of the G-CSF receptor fused to the full-length transmembrane domain and various portions of the intracellular domains of human gp130, were prepared as described (Fukada et al, 1996). The intracellular domain of gp130 was C-terminally truncated. A chimera protein named G-277 contained a 277 amino acid-long full intracellular domain of gp130 (SEQ ID NO:35), while G-195, G-133, G-68, and G-25 contained the amino acids 1-195 (SEQ ID NO:36), 1-133 (SEQ ID NO:37), 1-68 (SEQ ID NO:38), and 1-25 (SEQ ID NO:39) intracellular portions, respectively. C-terminally myc-tagged human WSX-1 and myc-tagged mouse CREME9 cDNAs were amplified from human and mouse embryo cDNA (BioChain) by PCR using sets of sense primers and antisense primers: 5′-[…]-3′ (SEQ ID NO:3) and 5′-[…]-3′ (SEQ ID NO:4) for human WSX-1; 5′-[…]-3′ (SEQ ID NO:5); and 5′-[…]-3′ (SEQ ID NO:6) for mouse CREME9. Plasmids encoding C-terminally V5-tagged human CNTF-R (V %-CNTF-R) and rat IL-6R (pUCM18-rat IL-6R) were purchased from Invitrogen and American Culture Collection, respectively. A pEFBos vector comprising familial ALS (FALS) gene G85R-SOD1 was kindly provided by Dr. Shoji Tsuji. Cosmid of human wild […] was constructed by inserting a full-length gp130 into a SwaI site of pAxCAwt (TaKaRa).
(§5) The transfection procedures were as described (Hashimoto et al, 2000, 2001a, 2003). F11 cells, seeded at 7×10^4/well in 6-well dishes, were transfected with indicated vectors. Transfection efficiency in these protocols has been determined to be invariably around 70%. At 72 hrs after transfection, the Trypan blue exclusion assay and LDH assay were performed as a cell-death assay and the WST-8 assay was performed as cell-viability assays (Hashimoto et al, 2000, 2001a b, 2003). HN was added to the culture medium usually at 5 hrs after transfection, but in some cases at 24 hrs after transfection.

[2] = tested on: G-CSFR/gp130 chimera proteins; experiment: as above; type: cell-based, human; conditions: 100 nM
Procedure: as §1, §2, §3, §4, §5

B1: G-CSF: human G-CSF, ligand stimulating G-CSFR/gp130 chimera proteins (protein, UniProt P09919 31-207, looked up)
Granulocyte …: TPLGPASSLPQSFLLKCLEQVRKIQGDGAALQEKLVSECATYKLCHPEELVLLGHSLGIPWAPLSSCPSQALQLAGCLSQLHSGLFLYQGLLQALEGISPELGPTLDTLQLDVADFATTIWQQMEELGMAPALQPTQGAMPAFASAFQRRAGGVLVASHLQSFLEVSYRVLRHLAQP
For B1, the “prevention of NL-APP-, M146L-PS1-, N141I-PS2-mediated neuronal cell death” value [1] was “not”, the “prevention of neuronal cell death induced by mutant Cu/Zn-superoxide dismutase (G85R-SOD1)” value [2] was “did not prevent” and the “prevention of neuronal cell death induced by V642I-APP” value ([2]; G-25 or G-68 expressed) was “did not prevent”.
